# Target: TNF-alpha (UniProt P01375 77-233)
# Experiment: FRET quenching (QD photoluminescence decreases with TNF-alpha); DSS peptide-conjugated QD/Au molecular beacon, TNF-alpha in PBS; TNF-alpha samples in PBS; other assay conditions (temperature, concentrations) not in the material; beacon washed in 50 mM borate pH 8.3
# Conditions: chain copies: 3
# Chain of TNF-alpha (P01375 77-233): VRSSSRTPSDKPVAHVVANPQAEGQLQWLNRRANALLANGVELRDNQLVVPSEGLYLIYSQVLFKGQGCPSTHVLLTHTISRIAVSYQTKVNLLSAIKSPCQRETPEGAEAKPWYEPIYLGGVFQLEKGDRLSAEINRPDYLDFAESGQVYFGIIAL
binder,measurement,value
"TGGTGGATGGCGCAGTCGGCGACAA (ssDNA, 5' Amino C6; 3' Thiol C6 SS) [TNF-alpha binding DNA aptamer (25 nt) in DSS-molecular beacon]",binding result,binds

# — paper PMC7413375, “A study on the response of FRET based DNA aptasensors in intracellular environment”
